Data as given in patent publication US20160106830A1.

How the values were obtained:
[1] = biological target: HLA-DR4 (α1*01:01; β1*04:01) (human); assay: ProImmune REVEAL class II MHC-peptide binding assay
[2] = biological target: HLA-DR7 (α1*01:01; β1*07:01) (human); assay: as above

Binder | binding score (% of positive control peptide signal) [1] [%] | binding score (% of positive control peptide signal) [2] [%]
VGPLTVNEKRRLKLIMPARFYPNVTKYLPLDKGIK (modifications not checked) [NP113] | 33.5 | 99.2
PEHVVNHYFQTRHYLHTLWKAGILYKRETTRSASF (modifications not checked) [NP151] | 74.4 | 19.4
